The labels stand for the following.
B1: Replication restart protein PriB (Escherichia coli (strain K12)), P07013 (parent)
chain: MTNRLVLSGTVCRAPLRKVSPSGIPHCQFVLEHRSVQEEAGFHRQAWCQMPVIVSGHENQAITHSITVGSRITVQGFISCHKAKNGLSKMVLHAEQIELIDSGD
partner: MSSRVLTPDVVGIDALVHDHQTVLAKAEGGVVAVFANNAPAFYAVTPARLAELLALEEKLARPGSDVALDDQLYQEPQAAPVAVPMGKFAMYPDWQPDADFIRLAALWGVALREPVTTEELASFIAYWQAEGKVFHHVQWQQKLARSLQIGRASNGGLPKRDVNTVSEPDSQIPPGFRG

Variants of B1 are the subject of this assay. Particulars: with dnat_ecoli dnaT.
MTNRLVLSGTVCRAPLRKVSPSGIPHCQFVLEHRSVQEEAGFHRQAACQMPVIVSGHENQAITHSITVGSRITVQGFISCHAAKNGLSKMVLHAEQIELIDSGD: the “effect of a mutation on the interaction” value is on record as “decreasing interaction”.

In the case of MTNRLVLSGTVCRAPLRKVSPSGIPHCQFVLEHRSVQEEAGFHRAAWCQMPVIVSGHENQAITHSITVGSRITVQGFISCHKAKNGLSKMVLHAEQIELIDSGD, the “effect of a mutation on the interaction” value is “increasing interaction”.

The values above are taken from IntAct's records for PubMed 17588514.
